The values below come from paper PMC6389284, “Heterodimerization of UNC-13/RIM regulates synaptic vesicle release probability but not priming in C. elegans” (eLife, 2019).

Assay [1] addresses T1, C. elegans UNC-13 long isoform residues 1-258 bearing the K49E mutation (C. elegans, UniProt P27715 1-258, K49E).
T1 sequence: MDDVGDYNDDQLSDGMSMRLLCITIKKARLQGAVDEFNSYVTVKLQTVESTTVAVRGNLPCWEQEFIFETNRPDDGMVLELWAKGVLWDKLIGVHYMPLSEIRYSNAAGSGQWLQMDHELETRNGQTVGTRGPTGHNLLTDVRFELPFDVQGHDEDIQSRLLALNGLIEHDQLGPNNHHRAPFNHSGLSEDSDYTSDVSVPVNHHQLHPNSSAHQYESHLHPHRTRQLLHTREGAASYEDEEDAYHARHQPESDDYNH
Briefly: ITC. In general terms: Isothermal titration calorimetry measures the heat released or taken up as one component is titrated into another.

Assay [2] concerns the target T2, C. elegans UNC-13 long isoform residues 1-258 bearing the K49E mutation (C. elegans, UniProt P27715 1-258, K49E).
T2 construct: UNC-13 long isoform, C. elegans, residues 1-258 with K49E; expressed from pGEX6p1; Residues left by HRV3C cleavage of the pGEX6p1 fusion are not described; also called UNC-13L residues 1-258; UNC-13L C2A domain; source: E. coli Rosetta2 (DE3), purified (glutathione sepharose, HRV3C cleavage on beads, Superdex 75)
T2 sequence (looked up): T1 sequence
As to the kind of experiment: ITC; Nano ITC (TA Instruments), 20 mM HEPES pH 7.5, 150 mM NaCl, 25°C; one site independent binding model; UNC-13L 1-258 K49E at 21 µM, UNC-10 62-121 WT at 140 µM or K77/79E at 116 µM. The following applies: both partners purified.

B1: C. elegans UNC-10 residues 62-121 WT (domain or fragment, UniProt Q22366 62-121, looked up)
chain: KLVGTQDDAICQICQKTKFADGIGHKCFYCQLRSCARCGGRAQSKNKAIWACSLCQKRQQ
notes: expressed from pGEX6p1; also called UNC-10/RIM ZF domain; source: E. coli Rosetta2 (DE3), grown with ZnSO4, purified (glutathione sepharose, HRV3C cleavage on beads, Superdex 75)
In general, Kd refers to the equilibrium constant for the complex coming apart. A low value points to a tighter complex. In turn, B1 registered a Ka in assay [1] of 789000 M⁻¹. For the same molecule, in assay [2], the Kd was found to be 1290 nM.
